± gives the standard deviation of the averaged measurements.
System: ATP
Experiment: switch fluorescence ratio, 500 uM ATP over buffer (Cy3 cluster intensity, sum of 5 cycles each) (fold (ratio)); higher = stronger signal-on switching upon ATP binding; sequences stand for … in TCGTCGGCAGCGTCAGATGTGTATAAGAGACAGTTTTTTTTTTTTTTTTTTTTTTTTT…TC
Conditions: aptamer strand: ATP DNA aptamer (quencher-CACCTGGGGGAGTATTGCGGAGGAAGG + anchor), 100 nM annealed; ATP concentration: 500 uM
Summary of the method: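 The quencher-labelled ATP aptamer, at 100 nM, was annealed to Cy3-labelled switching-strand clusters on a modified Illumina MiSeq flow-cell. The clusters were imaged in selection buffer, then after 15 min with 500 uM ATP at 22 °C, and this buffer/ATP cycle ran five times with NaOH stripping and re-annealing between runs. Per-cluster fluorescence ratios, summed target-cycle over summed buffer-cycle Cy3 intensity, were averaged per switch-domain sequence. Clusters outside 100-1000 RFU were excluded.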
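Further: ATP exposure 15 min at 22 °C before imaging.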

Sequence | switch fluorescence ratio
AATTAGACGG | 1.03 ± 0.046
AATTAGCATC | 1.06 ± 0.044
AATTAGCCAT | 0.987 ± 0.011
AATTAGCTGA | 1.01 ± 0.029
AATTAGCTGC | 1.04 ± 0.043
AATTAGGGCT | 0.971 ± 0.026
AATTAGGTGA | 1.04 ± 0.031
AATTAGTATG | 0.999 ± 0.014
AATTATACGT | 1.05 ± 0.014
AATTATAGTT | 0.99268 ± 5.5e-05
AATTATCATC | 1.02 ± 0.013
AATTATCCTT | 1.07 ± 0.037
AATTATCGAC | 1 ± 0.031
AATTATGGTG | 1.01 ± 0.012
AATTATGGTT | 1.03 ± 0.012
AATTATTCGA | 1.02 ± 0.011
AATTATTCGT | 1.024 ± 0.01
AATTATTGGT | 1.01 ± 0.026
AATTCAACAG | 1.01 ± 0.03
AATTCAATGA | 1.01 ± 0.045
AATTCACTAA | 1.028 ± 0.0063
AATTCAGCCA | 0.9878 ± 0.0057
AATTCGATAG | 0.966 ± 0.0039
AATTCGCGTT | 0.9868 ± 0.004
AATTCGTGCA | 1.03 ± 0.036

Sequence | switch fluorescence ratio
AATTCTGGTT | 0.9664 ± 0.0018
AATTGAGTGT | 1.01 ± 0.019
AATTGATTGT | 0.993 ± 0.051
AATTGATTTA | 1 ± 0.086
AATTGATTTT | 1.01 ± 0.03
AATTGCAGAG | 1.014 ± 0.0032
AATTGCGTTG | 0.979 ± 0.025
AATTGGCCGG | 0.989 ± 0.011
AATTGGGGGA | 0.979 ± 0.031
AATTGGTAAA | 0.9816 ± 0.0044
AATTGGTGCA | 0.96 ± 0.011
AATTGTAAAA | 0.988 ± 0.027
AATTGTATAT | 0.985 ± 0.042
AATTGTGAGT | 0.985 ± 0.024
AATTGTTAAC | 0.995 ± 0.016
AATTGTTTAG | 0.982 ± 0.034
AATTGTTTTT | 1 ± 0.021
AATTTAAAAC | 1.02 ± 0.031
AATTTAGGAT | 0.989 ± 0.027
AATTTAGGCC | 1.023 ± 0.0087
AATTTAGGGA | 1 ± 0.0089
AATTTAGGGT | 1.01 ± 0.028
AATTTATGGG | 0.986 ± 0.021
AATTTATTTG | 1.01 ± 0.037
AATTTATTTT | 0.991 ± 0.026

Sequence | switch fluorescence ratio
AATTTCTGTG | 0.978 ± 0.035
AATTTGAATT | 0.98 ± 0.013
AATTTGACGT | 0.981 ± 0.034
AATTTGATAA | 0.981 ± 0.011
AATTTGGTAA | 0.999 ± 0.019
AATTTGTAAG | 1.01 ± 0.023
AATTTGTACC | 0.989 ± 0.013
AATTTGTAGA | 0.9996 ± 0.0047
AATTTTACGA | 1.04 ± 0.024
AATTTTAGGT | 0.959 ± 0.015
AATTTTATCG | 0.9741 ± 0.0085
AATTTTATGT | 1.01 ± 0.011
AATTTTGGGA | 0.994 ± 0.023
AATTTTGTTT | 0.991 ± 0.035
AATTTTTCTC | 1.05 ± 0.1
AATTTTTCTT | 0.98 ± 0.05
AATTTTTGAT | 0.979 ± 0.037
AATTTTTGCT | 0.966 ± 0.011
AATTTTTGGG | 0.994 ± 0.03
AATTTTTTAA | 0.985 ± 0.019
AATTTTTTGT | 1.01 ± 0.033
ACAAAACATG | 1.16 ± 0.15
ACAAAACGTT | 1.028 ± 0.0078
ACAAAATGTT | 1.02 ± 0.019
ACAAAGATGA | 0.973 ± 0.015

Sequence | switch fluorescence ratio
ACAACATCCT | 1.08 ± 0.044
ACAACGGAAG | 1.03 ± 0.035
ACAACGGGGT | 1.01 ± 0.046
ACAAGCGTTT | 1.01 ± 0.036
ACAAGGCCTT | 0.993 ± 0.031
ACAAGGGGCA | 1.01 ± 0.028
ACAAGGGGCT | 1.02 ± 0.021
ACAAGGTGTT | 1.2 ± 0.022
ACAAGTTCAG | 0.993 ± 0.023
ACAATGAGTT | 0.985 ± 0.015
ACAATGTCGG | 0.998 ± 0.011
ACAATGTGTG | 0.985 ± 0.038
ACACAAATGA | 1.01 ± 0.024
ACACATAGGG | 0.9985 ± 0.0084
ACACCGGTTA | 1.01 ± 0.035
ACACCTAGGC | 1.12 ± 0.054
ACACGATGGG | 1 ± 0.019
ACACGGGGAA | 1.0184 ± 0.00046
ACACGGGTTA | 1 ± 0.047
ACACGTACTT | 1.52 ± 0.065
ACACGTGGTT | 1.04 ± 0.076
ACACGTTCTT | 0.996 ± 0.019
ACACTAATCT | 1.16 ± 0.15
ACACTACGTC | 1.51 ± 0.056
ACACTCAGAG | 1.019 ± 0.004

Sequence | switch fluorescence ratio
ACACTGGCCC | 0.964 ± 0.038
ACACTGGGCA | 1.022 ± 0.0053
ACAGAAGGGT | 0.972 ± 0.098
ACAGAAGGTC | 0.977 ± 0.015
ACAGACTCGG | 1.039 ± 0.0036
ACAGAGGGTG | 1.08 ± 0.095
ACAGAGGTTT | 0.984 ± 0.035
ACAGATGAGC | 1.01 ± 0.056
ACAGATGGGA | 1.04 ± 0.046
ACAGCGCAAT | 2.12 ± 0.94
ACAGCGCGAC | 1.32 ± 0.017
ACAGCGCTTT | 1.03 ± 0.025
ACAGCGGGA | 1.0254 ± 4.6e-06
ACAGCGTGTG | 1.03 ± 0.011
ACAGCTGCTT | 0.981 ± 0.028
ACAGCTGTTT | 0.998 ± 0.027
ACAGGAGAC | 1.0379 ± 0.00024
ACAGGGAGTA | 0.9864 ± 0.003
ACAGGGCGGG | 1.01 ± 0.035
ACAGGGCTAT | 1.02 ± 0.014
ACAGGGGATG | 1.08 ± 0.16
ACAGGGGCAG | 1.02 ± 0.017
ACAGGGGGAG | 0.983 ± 0.024
ACAGGGGTCT | 1.06 ± 0.024
ACAGGGTCG | 0.948 ± 0.025

Sequence | switch fluorescence ratio
ACAGGTTAAT | 1.02 ± 0.02
ACAGGTTAGT | 0.989 ± 0.034
ACAGGTTGAA | 0.996 ± 0.036
ACAGGTTTTT | 1.01 ± 0.023
ACAGTAACTT | 1.092 ± 0.0098
ACAGTAGGA | 1.06 ± 0.013
ACAGTATCGG | 1.06 ± 0.013
ACAGTATGGA | 1 ± 0.011
ACAGTATTCT | 1.047 ± 0.01
ACAGTCGTAG | 1 ± 0.015
ACAGTCTGTT | 1.01 ± 0.048
ACAGTGGGAA | 1.014 ± 0.0044
ACAGTGGGAG | 1.011 ± 0.003
ACAGTGGTCG | 1.06 ± 0.033
ACAGTGTGGT | 1.07 ± 0.031
ACAGTTGCTC | 1.02 ± 0.02
ACATAACGAA | 1.21 ± 0.013
ACATAATATT | 1.06 ± 0.036
ACATACTGCG | 1.323 ± 0.0038
ACATAGAACG | 1.06 ± 0.038
ACATAGCGAA | 1.13 ± 0.026
ACATAGTAAT | 1.001 ± 0.0092
ACATAGTTTT | 0.9994 ± 0.0075
ACATATCCGT | 1.01 ± 0.021
ACATCAAGGG | 1.06 ± 0.055

Sequence | switch fluorescence ratio
ACATCCCGTT | 1.05 ± 0.048
ACATCGGCTT | 0.998 ± 0.015
ACATGAATTT | 1 ± 0.029
ACATGACGGG | 1.06 ± 0.015
ACATGCCGGG | 1.03 ± 0.085
ACATGGAGGG | 1.01 ± 0.057
ACATGGGATT | 1.01 ± 0.043
ACATGGGGAA | 0.994 ± 0.012
ACATGTGGGG | 1.04 ± 0.025
ACATTAAAAA | 1.26 ± 0.013
ACATTAGTTT | 1.013 ± 0.0056
ACATTATGGA | 1.035 ± 0.0081
ACATTATTGT | 0.982 ± 0.011
ACATTATTTT | 1.02 ± 0.025
ACATTGAGCG | 1.03 ± 0.028
ACATTGAGGG | 1.057 ± 0.0028
ACATTGATCG | 1.03 ± 0.017
ACATTGATGG | 1.028 ± 0.00017
ACATTGGCTA | 1 ± 0.035
ACATTGTGTA | 0.9955 ± 0.0068
ACATTGTTAT | 1.07 ± 0.1
ACATTTCAAA | 0.987 ± 0.0069
ACATTTGCCC | 1.069 ± 0.003
ACATTTTCGT | 0.991 ± 0.032
ACCAAACGTG | 1.23 ± 0.055

Sequence | switch fluorescence ratio
ACCAAAGAGA | 0.993 ± 0.013
ACCAAGCTTT | 1.04 ± 0.016
ACCAATTTTT | 1.03 ± 0.026
ACCACATATC | 1.1 ± 0.06
ACCACCAGAA | 1.13 ± 0.02
ACCACGGGCG | 1.09 ± 0.018
ACCAGAGGTA | 1.01 ± 0.014
ACCAGGATGC | 1.225 ± 0.0042
ACCAGGGACG | 1.02 ± 0.073
ACCAGGGCTT | 1.08 ± 0.021
ACCAGGGTGG | 1.03 ± 0.068
ACCAGGTCGT | 1.51 ± 0.05
ACCAGTTATT | 1.08 ± 0.14
ACCATGTATC | 0.998 ± 0.026
ACCATTATTT | 1.03 ± 0.014
ACCATTCAAA | 1 ± 0.021
ACCCAAATCA | 1.04 ± 0.019
ACCCAGACGC | 1.35 ± 0.058
ACCCATGCTT | 1.06 ± 0.013
ACCCCAAATG | 1.124 ± 0.0098
ACCCCATGTT | 1.86 ± 1
ACCCCGGTCG | 1.167 ± 0.0062
ACCCGTTGTT | 1.01 ± 0.039
ACCCTAGGGT | 0.994 ± 0.035
ACCCTCGAGA | 1.06 ± 0.06

Reference: the supplement of paper PMC10126150
